Measurements reported in publication PMC1885638 (Nucleic Acids Research, 2007).
Each block holds one binder with its values, some of them ahead of it.

Molecular target: Human AP endonuclease 1 (human, UniProt P27695 1-318)
Experiment: pull-down

Chain of Human AP endonuclease 1 (P27695 whole entry): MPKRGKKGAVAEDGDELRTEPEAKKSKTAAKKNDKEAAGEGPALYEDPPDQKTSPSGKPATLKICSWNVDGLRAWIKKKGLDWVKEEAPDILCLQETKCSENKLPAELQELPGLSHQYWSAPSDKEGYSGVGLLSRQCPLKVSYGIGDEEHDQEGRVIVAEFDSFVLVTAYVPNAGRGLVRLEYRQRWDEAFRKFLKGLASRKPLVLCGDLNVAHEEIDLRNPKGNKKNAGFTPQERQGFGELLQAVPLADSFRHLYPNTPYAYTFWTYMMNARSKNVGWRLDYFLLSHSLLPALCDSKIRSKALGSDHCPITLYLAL

binding result: binds
B1: his-Rad1 (individual subunit) (natural protein, human, UniProt O60671 1-282, looked up)
chain: MPLLTQQIQDEDDQYSLVASLDNVRNLSTILKAIHFREHATCFATKNGIKVTVENAKCVQANAFIQAGIFQEFKVQEESVTFRINLTVLLDCLSIFGSSPMPGTLTALRMCYQGYGYPLMLFLEEGGVVTVCKINTQEPEETLDFDFCSTNVINKIILQSEGLREAFSELDMTSEVLQITMSPDKPYFRLSTFGNAGSSHLDYPKDSDLMEAFHCNQTQVNRYKISLLKPSTKALVLSCKVSIRTDNRGFLSLQYMIRNEDGQICFVEYYCCPDEEVPESES

binding result: binds
B2: his-Hus1 (individual subunit) (natural protein, human, UniProt O60921 1-280, looked up)
chain: MKFRAKIVDGACLNHFTRISNMIAKLAKTCTLRISPDKLNFILCDKLANGGVSMWCELEQENFFNEFQMEGVSAENNEIYLELTSENLSRALKTAQNARALKIKLTNKHFPCLTVSVELLSMSSSSRIVTHDIPIKVIPRKLWKDLQEPVVPDPDVSIYLPVLKTMKSVVEKMKNISNHLVIEANLDGELNLKIETELVCVTTHFKDLGNPPLASESTHEDRNVEHMAEVHIDIRKLLQFLAGQQVNPTKALCNIVNNKMVHFDLLHEDVSLQYFIPALS
